Laboratory results reported in paper PMC12699829, “Development of a glutamine-responsive MRI contrast agent” (Chemical Science, 2025).
Where a chain is given by its changes, count along the chain named. In names and notes the source's numbering stands. Read-outs that look alike come from different tables or passages of the source. Values belong to the molecule of their own block, whether it stands above or below them.

Legend:
Format in all cases: physicochemical
[1] = T1 and T2 relaxivity measurements at 9.4 T (400 MHz NMR); conditions: for Holo/Apo % r1 Change / Holo/Apo % r2 Change: 37 °C; for r1 (Holo) / r2 (Holo) / r1 (Apo) / r2 (Apo): PBS buffer pH 7.4, 37 °C; for r1 (Holo) / r2 (Holo): with Gln; for r1 (Apo) / r2 (Apo): without Gln
Procedure: The effectiveness of a contrast agent depends on its “relaxivity”, which is measured in units of mM^−1 s^−1, and quantifies how much a given concentration of the contrast agent improves water relaxation rates. T1 and T2 relaxivities are denoted r1 and r2, respectively, and are calculated according to eqn (1):1 [drawing 1] Here, Ti and Ti^0 are the relaxation times in the presence and absence of the contrast agent, respectively, and [C] is the concentration of the contrast agent. […] The relaxivity of a contrast agent depends not only on the properties of the molecule but also on the strength of the magnetic field used for the measurement. Whereas early MRI instruments were relatively weak (<1 T), the modern clinical standard has risen to 1–3 T, wth an increasing number of even more powerful instruments (>3 T) in recent years. Thus, we performed relaxivity experiments at both the most clinically relevant field strengths 1.4 T and at the more cutting-edge field strength of 9.4 T.
10% D 2O (assay buffer). S tock solutions of swArM in assay buffer was prepared at1.11, 0.83, 0.56, and 0.28 mM. Apo- and holo-swArM samples were prepared from the same stock by adding either 20 μL assay buffer or 20 μL 0. 1 M Gln in assay buffer, to 180 μL of protein solution, respectively. Final protein concentrations were verified using the molar extinction coefficient ε28 0 = 25.9 mM -1 cm -1.
B. NM R M easu r ements . Relaxivities of all variants were determined at 37 °C from spectra taken at 9.4 T (400 mHz) using a Varian Inova 400 -MHz NMR spectrometer equipped with a Nalorac, 5 mm, DR probe. Select variants were also investigated at 32°C at 1.4 T (60 mHz) using a Nanalysis NMReady60 Pro instrument. Measurements were typically performed on 4 diffe rent concentrations of contrast agent and on the same buffer with no contrast agent. Temperature- dependent relaxivity measurements were performed using a Varian Inova 500-MHz NMR spectrometer, equipped with a Vari an, 5-mm, TR PFG probe with inverse proton detection. Temperature- dependent relaxivity was determined using either two concen trations of contrast agent ( 0. 5 and 1. 0 mM ) or t hree (0. 3, 0. 6, and 0.9 mM) . The temperature was calibrated using the 1H NMR signal of ethylene glycol.20 T1 measurements were performed using the inversion recovery method21 and T2 measurements were performed using the Carr–Purcell–Meiboom –G ill (CPMG) p ulse […]
Six or more pulse delay times (τ) were chosen to ensure coverage of the Ti under observation, and the delay between pulse sequences was set to at least 5-times T1.
Optimized 90° and 180° pulse widths were determined on the day of the experiment, and typically spanned 16‒2 0 μs (90° pulse width) and 32‒4 0 μs (180° pulse width). The delay in the CPMG pulse sequence was set to at least 50 times the 180° pulse width to allow at least four echo loops .
C. A n al ysi s . To determine Ti, data were analyzed via MestReNova software. For each spectrum, an integration was performed over the water peak, and the values obtained (dependent variable) were plotted against τ (independent variable). […]
then fit to a monoexponential decay according to Eq. 1. From these analyses, we obtain Ti for each sample concentration and type.
The quantity described by Eq. 2, where Ti at zero added sample is T0, was then plotted against the swArM concentration and a linear regression model was applied. The slope of this line gives the contrast agent relaxivity ri.

[2] = T1 and T2 relaxivity measurements at 1.4 T (60 MHz NMR); conditions: for Holo/Apo % r1 Change / Holo/Apo % r2 Change: 32 °C; for r1 (Holo) / r2 (Holo) / r1 (Apo) / r2 (Apo): PBS buffer pH 7.4, 32 °C; for r1 (Holo) / r2 (Holo): with Gln; for r1 (Apo) / r2 (Apo): without Gln
[3] = Stability of swArM samples prepared in PBS buffer for relaxivity studies
Description: Next, we set out to investigate alternative ligands to coordinate Ln^3+ ions. As shown in Chart 1, we investigated two DOTA derivatives (DOTA-mal^N and DOTA-mal^C) as well as an acyclic version of DOTA, diethylene triamine pentaacetic acid (DTPA), and a six-coordinate version of the eight-coordinate DOTA ligand, nonane triacetic acid (NOTA). […] This ligand has previously been tested with Gd^3+ as an MRI contrast agent in PBS buffer, with no reported stability issues.[40] The fact that conjugation to our protein decreased the kinetic stability of Gd(NOTA) exemplifies the impact of the specific protein environment.

[4] = free contrast agent control, PBS pH 7.4, 37 °C
[5] = listed as [Dy(DOTA-mal^N)]72-GlnBP

r1 (+Gln) [1, 4]: 2.80 ± 0.07 mM⁻¹ s⁻¹
r1 (−Gln) [1, 4]: 2.82 ± 0.04 mM⁻¹ s⁻¹
r2 (+Gln) [1, 4]: 3.6 ± 0.2 mM⁻¹ s⁻¹
r2 (−Gln) [1, 4]: 3.5 ± 0.1 mM⁻¹ s⁻¹
Molecule: O=C([O-])CN1CCN(CC(=O)[O-])CCN(CC(=O)[O-])CCN(CC(=O)[O-])CC1.[Gd+3] [Gd(DOTA), reference compound]
+Gln/−Gln % r1 Change ([1]; free contrast agent control): 0 ± 3%
+Gln/−Gln % r2 Change ([1]; free contrast agent control): 1 ± 6%

B1: [Gd(DOTA-mal^N)]72: swArM: Gd(DOTA-mal^N) metallocofactor covalently attached at Cys72 of T72C E. coli glutamine-binding protein (GlnBP) (conjugate, UniProt P0AEQ3 23-248, looked up, variant T72C)
Glutamine-binding periplasmic …: ADKKLVVATDTAFVPFEFKQGDKYVGFDVDLWAAIAKELKLDYELKPMDFSGIIPALQTKNVDLALAGITICDERKKAIDFSDGYYKSGLLVMVKANNNDVKSVKDLDGKVVAVKSGTGSVDYAKANIKTKDLRQFPNIDNAYMELGTNRADAVLHDTPNILYFIKTAGNGQFKAVGDSLEAQQYGIAFPKGSDELRDKVNGALKTLRENGTYNEIYKKWFGTEPK
modifications: Gd(DOTA-malN) at Cys72
Holo/Apo % r1 Change [1]: –1 ± 2%
Holo/Apo % r2 Change [1]: 20 ± 5%
r1 (Holo) [1]: 4.32 ± 0.07 mM⁻¹ s⁻¹
r2 (Holo) [1]: 43.2 ± 0.8 mM⁻¹ s⁻¹
r1 (Holo) ([1]; listed as [Gd(DOTA-malN)]72): 4.32 mM⁻¹ s⁻¹
r1 (Apo) [1]: 4.35 ± 0.07 mM⁻¹ s⁻¹
r2 (Apo) [1]: 36 ± 1 mM⁻¹ s⁻¹
r1 (Apo) ([1]; listed as [Gd(DOTA-malN)]72): 4.35 mM⁻¹ s⁻¹
Holo/Apo % r1 Change [2]: 4 ± 2%
Holo/Apo % r2 Change [2]: 11 ± 2%
r1 (Holo) [2]: 20.4 ± 0.3 mM⁻¹ s⁻¹
r2 (Holo) [2]: 41.5 ± 0.4 mM⁻¹ s⁻¹
r1 (Holo) ([2]; listed as [Gd(DOTA-malN)]72): 20.4 mM⁻¹ s⁻¹
r1 (Apo) [2]: 19.5 ± 0.4 mM⁻¹ s⁻¹
r2 (Apo) [2]: 37.2 ± 0.7 mM⁻¹ s⁻¹
r1 (Apo) ([2]; listed as [Gd(DOTA-malN)]72): 19.5 mM⁻¹ s⁻¹

B2: [Dy(DOTA-mal^N)]72-A126Y: swArM: Dy(DOTA-mal^N) on T72C/A126Y double variant of GlnBP (conjugate, UniProt P0AEQ3 23-248, looked up, variant T72C A126Y)
Glutamine-binding periplasmic …: B1 Glutamine-binding periplasmic … with A126Y
modifications: Dy(DOTA-malN) at Cys72
notes: swArM: Dy(DOTA-mal^N) on T72C/A126Y double variant of GlnBP
Holo/Apo % r2 Change [1]: 58 ± 6%
r2 (Holo) [1]: 10.8 ± 0.2 mM⁻¹ s⁻¹
r2 (Apo) [1]: 6.8 ± 0.2 mM⁻¹ s⁻¹

B3: [Dy(DOTA-malN)]72-A126D: swArM: Dy(DOTA-mal^N) on T72C/A126D double variant of GlnBP (conjugate, UniProt P0AEQ3 23-248, looked up, variant T72C A126D)
Glutamine-binding periplasmic …: B1 Glutamine-binding periplasmic … with A126D
modifications: Dy(DOTA-malN) at Cys72
notes: swArM: Dy(DOTA-mal^N) on T72C/A126D double variant of GlnBP
Holo/Apo % r2 Change [1]: 23 ± 5%
r2 (Holo) [1]: 11.7 ± 0.09 mM⁻¹ s⁻¹
r2 (Apo) [1]: 9.5 ± 0.3 mM⁻¹ s⁻¹

B4: [Dy(DOTA-malN)]72-Q183Y: swArM: Dy(DOTA-mal^N) on T72C/Q183Y double variant of GlnBP (conjugate, UniProt P0AEQ3 23-248, looked up, variant T72C Q183Y)
Glutamine-binding periplasmic …: B1 Glutamine-binding periplasmic … with Q183Y
modifications: Dy(DOTA-malN) at Cys72
notes: swArM: Dy(DOTA-mal^N) on T72C/Q183Y double variant of GlnBP
Holo/Apo % r2 Change [1]: 29 ± 4%
r2 (Holo) [1]: 18.0 ± 0.4 mM⁻¹ s⁻¹
r2 (Apo) [1]: 14.0 ± 0.1 mM⁻¹ s⁻¹

B5: [Gd(NOTA)mal^N)]72-GlnBP: swArM: Gd complex of maleimide-functionalized NOTA attached at Cys72 of T72C-GlnBP (conjugate, UniProt P0AEQ3 23-248, looked up, variant T72C)
Glutamine-binding periplasmic …: B1 Glutamine-binding periplasmic …
modifications: Gd(NOTA-mal) at Cys72
stability of the swArM in PBS buffer (metal loss, precipitate) ([3]; PBS buffer): precipitate formation

B6: [Dy(DOTA-mal^N)]72-N127Y: swArM: Dy(DOTA-mal^N) on T72C/N127Y double variant of GlnBP (conjugate, UniProt P0AEQ3 23-248, looked up, variant T72C N127Y)
Glutamine-binding periplasmic …: B1 Glutamine-binding periplasmic … with N127Y
modifications: Dy(DOTA-malN) at Cys72
notes: swArM: Dy(DOTA-mal^N) on T72C/N127Y double variant of GlnBP
Holo/Apo % r2 Change [1]: 40 ± 7%
r2 (Holo) [1]: 9.1 ± 0.2 mM⁻¹ s⁻¹
r2 (Apo) [1]: 6.5 ± 0.3 mM⁻¹ s⁻¹

B7: [Dy(DOTA-mal^N)]72: swArM: Dy(DOTA-mal^N) attached at Cys72 of T72C-GlnBP (conjugate, UniProt P0AEQ3 23-248, looked up, variant T72C)
Glutamine-binding periplasmic …: B1 Glutamine-binding periplasmic …
modifications: Dy(DOTA-malN) at Cys72
notes: swArM: Dy(DOTA-mal^N) attached at Cys72 of T72C-GlnBP
Holo/Apo % r1 Change [1]: –1 ± 5%
Holo/Apo % r2 Change [1]: 36 ± 3%
r1 (Holo) [1]: 0.37 ± 0.02 mM⁻¹ s⁻¹
r2 (Holo) [1, 5]: 9.3 ± 0.1 mM⁻¹ s⁻¹
r1 (Apo) [1]: 0.37 ± 0.01 mM⁻¹ s⁻¹
r2 (Apo) [1]: 6.83 ± 0.04 mM⁻¹ s⁻¹
r1 (Apo) ([1]; listed as [Dy(DOTA-malN)]72): 0.37 mM⁻¹ s⁻¹
r2 (Apo) [1, 5]: 6.86 ± 0.08 mM⁻¹ s⁻¹
r1 value ([1]; apo/holo not specified): below the practical detection limit
Holo/Apo % r1 Change [2]: 4 ± 5%
Holo/Apo % r2 Change [2]: 40 ± 20%
r1 (Holo) [2]: 0.201 mM⁻¹ s⁻¹
r1 (Apo) [2]: 0.176 mM⁻¹ s⁻¹

B8: [Gd(DTPA-malN)]72: swArM: Gd complex of maleimide-functionalized DTPA attached at Cys72 of T72C-GlnBP (conjugate, UniProt P0AEQ3 23-248, looked up, variant T72C)
Glutamine-binding periplasmic …: B1 Glutamine-binding periplasmic …
modifications: Gd(DTPA-mal) at Cys72
notes: swArM: Gd complex of maleimide-functionalized DTPA attached at Cys72 of T72C-GlnBP
Holo/Apo % r1 Change [1]: 3 ± 3%
Holo/Apo % r2 Change [1]: 10 ± 10%
r1 (Holo) [1]: 4.14 ± 0.05 mM⁻¹ s⁻¹
r2 (Holo) [1]: 72 ± 4 mM⁻¹ s⁻¹
r1 (Apo) [1]: 4.0 ± 0.1 mM⁻¹ s⁻¹
r2 (Apo) [1]: 65 ± 4 mM⁻¹ s⁻¹
stability of the swArM in PBS buffer (metal loss, precipitate) [3]: did not observe loss of metal to solution over time
Holo/Apo % r1 Change [2]: 7 ± 4%
Holo/Apo % r2 Change [2]: 11 ± 6%
r1 (Holo) [2]: 17.8 mM⁻¹ s⁻¹
r2 (Holo) [2]: 30.3 ± 0.9 mM⁻¹ s⁻¹
r1 (Apo) [2]: 16.7 mM⁻¹ s⁻¹
r2 (Apo) [2]: 27 ± 1 mM⁻¹ s⁻¹

B9: [Dy(DOTA-malN)]72-G119K: swArM: Dy(DOTA-mal^N) on T72C/G119K double variant of GlnBP (conjugate, UniProt P0AEQ3 23-248, looked up, variant T72C G119K)
Glutamine-binding periplasmic …: B1 Glutamine-binding periplasmic … with G119K
modifications: Dy(DOTA-malN) at Cys72
notes: swArM: Dy(DOTA-mal^N) on T72C/G119K double variant of GlnBP
Holo/Apo % r2 Change [1]: 15 ± 4%
r2 (Holo) [1]: 8.5 ± 0.2 mM⁻¹ s⁻¹
r2 (Apo) [1]: 7.39 ± 0.07 mM⁻¹ s⁻¹

B10: [Gd(DOTA-malN)]72-Q183K: swArM: Gd(DOTA-mal^N) on T72C/Q183K double variant of GlnBP (conjugate, UniProt P0AEQ3 23-248, looked up, variant T72C Q183K)
Glutamine-binding periplasmic …: B1 Glutamine-binding periplasmic … with Q183K
modifications: Gd(DOTA-malN) at Cys72
notes: swArM: Gd(DOTA-mal^N) on T72C/Q183K double variant of GlnBP
r2 (Holo) [1]: 28.2 ± 0.8 mM⁻¹ s⁻¹
r2 (Apo) [1]: 30.9 ± 0.2 mM⁻¹ s⁻¹

B11: [Dy(DOTA-malC)]72-A126Y: swArM: Dy(DOTA-mal^C), linker on carbon of carboxylate arm, on T72C/A126Y GlnBP (conjugate, UniProt P0AEQ3 23-248, looked up, variant T72C A126Y)
Glutamine-binding periplasmic …: B1 Glutamine-binding periplasmic … with A126Y
modifications: Dy(DOTA-malC) at Cys72
notes: swArM: Dy(DOTA-mal^C), linker on carbon of carboxylate arm, on T72C/A126Y GlnBP
r2 (Holo) [1]: 9.6 ± 0.2 mM⁻¹ s⁻¹
r2 (Apo) [1]: 9.7 ± 0.1 mM⁻¹ s⁻¹
